Tests used:
[1] = molecular target: ligand binding domain of the glucocorticoid receptor, Atto488-labelled (GR-LBDm-Atto 488); test: analytical ultracentrifugation; settings: parent: est. 0.77; read off a plot
[2] = molecular target: yHsp90 (Saccharomyces cerevisiae) (UniProt P02829); settings: remark: other sources report otherwise

response (normalized dc/dt) [1]	Kd [2] [nM]	Substance
0.37		human Hsp90β, wild type (from UniProt P08238) K607E
	45	yHsp90, P02829

Second part, the substance before the results:

Substance	response (normalized dc/dt) [1]	Kd [2] [nM]
human Hsp90β, wild type (from UniProt P08238) K607A	0.58	
human Hsp90β, wild type (from UniProt P08238) K607I	0.71	
human Hsp90β, wild type (from UniProt P08238) K607R	0.82	

— article PMC7057950
